# Test results taken from patent US20210213134A1, “THIOL-BASED MULTIVALENT DRUG DELIVERY COMPOSITIONS” (ORPRO THERAPEUTICS, INC., priority 2018, published 2021).
# Read-outs that look alike come from different tables or passages of the source.
# Columns and labels:
# [1] = molecular target: insulin (fully disulfide-bonded heterodimeric insulin); assay: cell-based or functional assay
# [2] = molecular target: insulin (fully disulfide-bonded heterodimeric insulin); assay: cell-based or functional assay; remark: listed apart in the source
binder,measurement,setting,value
"reduced (active) C35STRX (enzyme, active site Cys32 in the reduced state) MVKQIESKTAFQEALDAAGDKLVVVDFSATWCGPSKMIKPFFHSLSEKYSNVIFLEVDVDDCQDVASECEVKCMPTFQFFKKGQKVGEFSGANKEKLEATINELV","% reduction C35STRX (insulin heterodimer peak, RP-HPLC), 90 min",[1],97.7%
same,"column 'C35STRX' (taken as insulin heterodimer peak area, RP-HPLC), 0 min",[1],10600
same,"column 'C35STRX' (taken as insulin heterodimer peak area, RP-HPLC), 90 min",[1],243
same,"% reduction C35STRX (insulin heterodimer peak, RP-HPLC), 0 min",[2],0%
same,"% reduction C35STRX (insulin heterodimer peak, RP-HPLC), 90 min",[2],99.4%
same,"column 'C35STRX' (taken as insulin heterodimer peak area, RP-HPLC), 0 min",[2],8520
same,"column 'C35STRX' (taken as insulin heterodimer peak area, RP-HPLC), 90 min",[2],50.2
"Azido-C35STRX (C35STRX with azido-PEG linkers on Lys residues, reduced) (enzyme, azido-PEG chains (NHS-PEG4-Azide) on Lys residues, average of 11 per molecule; active site Cys reduced with DTT) MVKQIESKTAFQEALDAAGDKLVVVDFSATWCGPSKMIKPFFHSLSEKYSNVIFLEVDVDDCQDVASECEVKCMPTFQFFKKGQKVGEFSGANKEKLEATINELV","% reduction Azido-C35STRX (insulin heterodimer peak, RP-HPLC), 0 min",[1],0%
same,"% reduction Azido-C35STRX (insulin heterodimer peak, RP-HPLC), 90 min",[1],33.1%
same,"column 'Azido-C35STRX' (taken as insulin heterodimer peak area, RP-HPLC), 0 min",[1],10200
same,"column 'Azido-C35STRX' (taken as insulin heterodimer peak area, RP-HPLC), 90 min",[1],6840
same,"% reduction Azido-C35STRX (insulin heterodimer peak, RP-HPLC), 90 min",[2],32.7%
same,attenuation of the ability to reduce insulin disulfides vs. unconjugated monocysteinic thioredoxin,[2],70%
same,"column 'Azido-C35STRX' (taken as insulin heterodimer peak area, RP-HPLC), 0 min",[2],8960
same,"column 'Azido-C35STRX' (taken as insulin heterodimer peak area, RP-HPLC), 90 min",[2],6030
